The record followed here is patent US20220177549A1.

B1: Equine Q311V (antibody, part only; not given: variable domains and light chain, IgG1, not shown: another chain or arm of the molecule)
Fc: APELLGGPSVFIFPPNPKDTLMITRTPEVTCVVVDVSQENPDVKFNWYMDGVEVRTATTRPKEEQFNSTYRVVSVLRIQHVDWLSGKEFKCKVNNQALPQPIERTITKTKGRSQEPQVYVLAPHPDELSKSKVSVTCLVKDFYPPEINIEWQSNGQPELETKYSTTQAQQDSDGSYFLYSKLSVDRNRWQQGTTFTCGVMHEALHNHYTQKNVSKNPGK
B2: Equine Q309D (antibody, part only; not given: variable domains and light chain, IgG1, not shown: another chain or arm of the molecule)
Fc: APELLGGPSVFIFPPNPKDTLMITRTPEVTCVVVDVSQENPDVKFNWYMDGVEVRTATTRPKEEQFNSTYRVVSVLRIDHQDWLSGKEFKCKVNNQALPQPIERTITKTKGRSQEPQVYVLAPHPDELSKSKVSVTCLVKDFYPPEINIEWQSNGQPELETKYSTTQAQQDSDGSYFLYSKLSVDRNRWQQGTTFTCGVMHEALHNHYTQKNVSKNPGK
B3: Equine T286E (antibody, part only; not given: variable domains and light chain, IgG1, not shown: another chain or arm of the molecule)
Fc: APELLGGPSVFIFPPNPKDTLMITRTPEVTCVVVDVSQENPDVKFNWYMDGVEVREATTRPKEEQFNSTYRVVSVLRIQHQDWLSGKEFKCKVNNQALPQPIERTITKTKGRSQEPQVYVLAPHPDELSKSKVSVTCLVKDFYPPEINIEWQSNGQPELETKYSTTQAQQDSDGSYFLYSKLSVDRNRWQQGTTFTCGVMHEALHNHYTQKNVSKNPGK
B4: Equine Q309V (antibody, part only; not given: variable domains, light chain, IgG1, not shown: another chain or arm of the molecule)
Fc: APELLGGPSVFIFPPNPKDTLMITRTPEVTCVVVDVSQENPDVKFNWYMDGVEVRTATTRPKEEQFNSTYRVVSVLRIVHQDWLSGKEFKCKVNNQALPQPIERTITKTKGRSQEPQVYVLAPHPDELSKSKVSVTCLVKDFYPPEINIEWQSNGQPELETKYSTTQAQQDSDGSYFLYSKLSVDRNRWQQGTTFTCGVMHEALHNHYTQKNVSKNPGK
B5: Equine Y436H (antibody, part only; not given: variable domains and light chain, IgG1, not shown: another chain or arm of the molecule)
Fc: APELLGGPSVFIFPPNPKDTLMITRTPEVTCVVVDVSQENPDVKFNWYMDGVEVRTATTRPKEEQFNSTYRVVSVLRIQHQDWLSGKEFKCKVNNQALPQPIERTITKTKGRSQEPQVYVLAPHPDELSKSKVSVTCLVKDFYPPEINIEWQSNGQPELETKYSTTQAQQDSDGSYFLYSKLSVDRNRWQQGTTFTCGVMHEALHNHHTQKNVSKNPGK
B6: Equine M252Y (antibody, part only; not given: variable domains, light chain, IgG1, not shown: another chain or arm of the molecule)
Fc: APELLGGPSVFIFPPNPKDTLYITRTPEVTCVVVDVSQENPDVKFNWYMDGVEVRTATTRPKEEQFNSTYRVVSVLRIQHQDWLSGKEFKCKVNNQALPQPIERTITKTKGRSQEPQVYVLAPHPDELSKSKVSVTCLVKDFYPPEINIEWQSNGQPELETKYSTTQAQQDSDGSYFLYSKLSVDRNRWQQGTTFTCGVMHEALHNHYTQKNVSKNPGK
B7: Equine M428Y (antibody, part only; not given: variable domains, light chain, IgG1, not shown: another chain or arm of the molecule)
Fc: APELLGGPSVFIFPPNPKDTLMITRTPEVTCVVVDVSQENPDVKFNWYMDGVEVRTATTRPKEEQFNSTYRVVSVLRIQHQDWLSGKEFKCKVNNQALPQPIERTITKTKGRSQEPQVYVLAPHPDELSKSKVSVTCLVKDFYPPEINIEWQSNGQPELETKYSTTQAQQDSDGSYFLYSKLSVDRNRWQQGTTFTCGVYHEALHNHYTQKNVSKNPGK
B8: Equine N434Y (antibody, part only; not given: variable domains and light chain, IgG1, not shown: another chain or arm of the molecule)
Fc: APELLGGPSVFIFPPNPKDTLMITRTPEVTCVVVDVSQENPDVKFNWYMDGVEVRTATTRPKEEQFNSTYRVVSVLRIQHQDWLSGKEFKCKVNNQALPQPIERTITKTKGRSQEPQVYVLAPHPDELSKSKVSVTCLVKDFYPPEINIEWQSNGQPELETKYSTTQAQQDSDGSYFLYSKLSVDRNRWQQGTTFTCGVMHEALHYHYTQKNVSKNPGK
B9: Bovine wild-type (antibody, part only; not given: variable domains, light chain, IgG1, not shown: another chain or arm of the molecule)
Fc: PPELPGGPSVFIFPPKPKDTLTISGTPEVTCVVVDVGHDDPEVKFSWFVDNVEVNTATTKPREEQFNSTYRVVSALRIQHQDWTGGKEFKCKVHNEGLPAPIVRTISRTKGPAREPQVYVLAPPQEELSKSTVSLTCMVTSFYPDYIAVEWQRNGQPESEDKYGTTPPQLDADSSYFLYSKLRVDRNSWQEGDTYTCVVMHEALHNHYTQKSTSKSA
B10: Bovine Q309V (antibody, part only; not given: variable domains, light chain, IgG1, not shown: another chain or arm of the molecule)
Fc: PPELPGGPSVFIFPPKPKDTLTISGTPEVTCVVVDVGHDDPEVKFSWFVDNVEVNTATTKPREEQFNSTYRVVSALRIVHQDWTGGKEFKCKVHNEGLPAPIVRTISRTKGPAREPQVYVLAPPQEELSKSTVSLTCMVTSFYPDYIAVEWQRNGQPESEDKYGTTPPQLDADSSYFLYSKLRVDRNSWQEGDTYTCVVMHEALHNHYTQKSTSKSA
B11: Bovine T252Y (antibody, part only; not given: variable domains and light chain, IgG1, not shown: another chain or arm of the molecule)
Fc: PPELPGGPSVFIFPPKPKDTLYISGTPEVTCVVVDVGHDDPEVKFSWFVDNVEVNTATTKPREEQFNSTYRVVSALRIQHQDWTGGKEFKCKVHNEGLPAPIVRTISRTKGPAREPQVYVLAPPQEELSKSTVSLTCMVTSFYPDYIAVEWQRNGQPESEDKYGTTPPQLDADSSYFLYSKLRVDRNSWQEGDTYTCVVMHEALHNHYTQKSTSKSA
B12: Porcine T286E (antibody, part only; not given: variable domains and light chain, IgG1a, not shown: another chain or arm of the molecule)
Fc: GCEVAGPSVFIFPPKPKDTLMISQTPEVTCVVVDVSKEHAEVQFSWYVDGVEVHEAETRPKEEQFNSTYRVVSVLPIQHQDWLKGKEFKCKVNNVDLPAPITRTISKAIGQSREPQVYTLPPPAEELSRSKVTVTCLVIGFYPPDIHVEWKSNGQPEPEGNYRTTPPQQDVDGTFFLYSKLAVDKARWDHGETFECAVMHEALHNHYTQKSISKTQGK
B13: Porcine Q309D (antibody, part only; not given: variable domains and light chain, IgG1a, not shown: another chain or arm of the molecule)
Fc: GCEVAGPSVFIFPPKPKDTLMISQTPEVTCVVVDVSKEHAEVQFSWYVDGVEVHTAETRPKEEQFNSTYRVVSVLPIDHQDWLKGKEFKCKVNNVDLPAPITRTISKAIGQSREPQVYTLPPPAEELSRSKVTVTCLVIGFYPPDIHVEWKSNGQPEPEGNYRTTPPQQDVDGTFFLYSKLAVDKARWDHGETFECAVMHEALHNHYTQKSISKTQGK
B14: Porcine M252Y (antibody, part only; not given: variable domains and light chain, IgG1a, not shown: another chain or arm of the molecule)
Fc: GCEVAGPSVFIFPPKPKDTLYISQTPEVTCVVVDVSKEHAEVQFSWYVDGVEVHTAETRPKEEQFNSTYRVVSVLPIQHQDWLKGKEFKCKVNNVDLPAPITRTISKAIGQSREPQVYTLPPPAEELSRSKVTVTCLVIGFYPPDIHVEWKSNGQPEPEGNYRTTPPQQDVDGTFFLYSKLAVDKARWDHGETFECAVMHEALHNHYTQKSISKTQGK
B15: Porcine M428Y (antibody, part only; not given: variable domains and light chain, IgG1a, not shown: another chain or arm of the molecule)
Fc: GCEVAGPSVFIFPPKPKDTLMISQTPEVTCVVVDVSKEHAEVQFSWYVDGVEVHTAETRPKEEQFNSTYRVVSVLPIQHQDWLKGKEFKCKVNNVDLPAPITRTISKAIGQSREPQVYTLPPPAEELSRSKVTVTCLVIGFYPPDIHVEWKSNGQPEPEGNYRTTPPQQDVDGTFFLYSKLAVDKARWDHGETFECAVYHEALHNHYTQKSISKTQGK
B16: Porcine A426Y (antibody, part only; not given: variable domains, light chain, IgG1a, not shown: another chain or arm of the molecule)
Fc: GCEVAGPSVFIFPPKPKDTLMISQTPEVTCVVVDVSKEHAEVQFSWYVDGVEVHTAETRPKEEQFNSTYRVVSVLPIQHQDWLKGKEFKCKVNNVDLPAPITRTISKAIGQSREPQVYTLPPPAEELSRSKVTVTCLVIGFYPPDIHVEWKSNGQPEPEGNYRTTPPQQDVDGTFFLYSKLAVDKARWDHGETFECYVMHEALHNHYTQKSISKTQGK
B17: Porcine N434Y (antibody, part only; not given: variable domains and light chain, IgG1a, not shown: another chain or arm of the molecule)
Fc: GCEVAGPSVFIFPPKPKDTLMISQTPEVTCVVVDVSKEHAEVQFSWYVDGVEVHTAETRPKEEQFNSTYRVVSVLPIQHQDWLKGKEFKCKVNNVDLPAPITRTISKAIGQSREPQVYTLPPPAEELSRSKVTVTCLVIGFYPPDIHVEWKSNGQPEPEGNYRTTPPQQDVDGTFFLYSKLAVDKARWDHGETFECAVMHEALHYHYTQKSISKTQGK
B18: Porcine Q309V (antibody, part only; not given: variable domains, light chain, IgG1a, not shown: another chain or arm of the molecule)
Fc: GCEVAGPSVFIFPPKPKDTLMISQTPEVTCVVVDVSKEHAEVQFSWYVDGVEVHTAETRPKEEQFNSTYRVVSVLPIVHQDWLKGKEFKCKVNNVDLPAPITRTISKAIGQSREPQVYTLPPPAEELSRSKVTVTCLVIGFYPPDIHVEWKSNGQPEPEGNYRTTPPQQDVDGTFFLYSKLAVDKARWDHGETFECAVMHEALHNHYTQKSISKTQGK
B19: Porcine Q311V (antibody, part only; not given: variable domains and light chain, IgG1a, not shown: another chain or arm of the molecule)
Fc: GCEVAGPSVFIFPPKPKDTLMISQTPEVTCVVVDVSKEHAEVQFSWYVDGVEVHTAETRPKEEQFNSTYRVVSVLPIQHVDWLKGKEFKCKVNNVDLPAPITRTISKAIGQSREPQVYTLPPPAEELSRSKVTVTCLVIGFYPPDIHVEWKSNGQPEPEGNYRTTPPQQDVDGTFFLYSKLAVDKARWDHGETFECAVMHEALHNHYTQKSISKTQGK

Sequence of bovine FcRn complex (bovine) (chain, as listed by the source, chain 1 of 2): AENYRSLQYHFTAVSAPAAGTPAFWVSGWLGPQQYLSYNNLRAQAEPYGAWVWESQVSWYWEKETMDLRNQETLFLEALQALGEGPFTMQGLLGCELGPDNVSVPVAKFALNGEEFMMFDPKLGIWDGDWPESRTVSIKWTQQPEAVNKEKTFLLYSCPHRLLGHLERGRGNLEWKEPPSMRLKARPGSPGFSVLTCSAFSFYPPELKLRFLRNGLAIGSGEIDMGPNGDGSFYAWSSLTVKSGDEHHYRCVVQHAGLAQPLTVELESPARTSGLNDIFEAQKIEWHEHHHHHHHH
Sequence of bovine FcRn complex (bovine) (P01888 other isoform, or with tags, fused parts or gaps, chain 2 of 2): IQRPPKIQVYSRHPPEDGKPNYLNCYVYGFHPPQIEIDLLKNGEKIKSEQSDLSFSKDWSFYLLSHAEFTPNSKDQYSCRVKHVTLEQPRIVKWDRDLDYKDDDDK
Sequence of equine FcRn complex (equine) (chain, as listed by the source, chain 1 of 2): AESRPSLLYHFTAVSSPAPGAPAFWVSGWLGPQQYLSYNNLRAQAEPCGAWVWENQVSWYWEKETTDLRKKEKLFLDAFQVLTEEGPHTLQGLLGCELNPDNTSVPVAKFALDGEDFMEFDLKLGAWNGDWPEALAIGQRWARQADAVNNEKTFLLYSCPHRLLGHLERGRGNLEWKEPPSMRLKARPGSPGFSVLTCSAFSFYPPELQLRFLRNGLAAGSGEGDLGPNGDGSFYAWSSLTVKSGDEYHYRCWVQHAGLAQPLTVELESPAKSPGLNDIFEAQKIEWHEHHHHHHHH
Sequence of equine FcRn complex (equine) (P30441 other isoform, or with tags, fused parts or gaps, chain 2 of 2): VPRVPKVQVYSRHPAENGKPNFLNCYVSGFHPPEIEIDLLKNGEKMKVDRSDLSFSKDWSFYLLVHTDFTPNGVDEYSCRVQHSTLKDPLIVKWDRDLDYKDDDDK

The first experiment concerns the target equine FcRn complex (equine) (UniProt F6XZ61). As to the kind of experiment: SPR (Biacore 8K+), pH 5.9, 25 C; FcRn captured by anti-His, IgG as analyte; 1:1 kinetic model. (SPR reads the build-up and loss of mass on a sensor chip optically.)
For orientation: Kd means the free concentration of one partner at which half of the binding sites on the other are occupied at equilibrium, for simple one-to-one binding. A lower Kd goes with higher affinity. As for B1, the Fold increase over wild-type KD was determined as 4 fold and the Kd came out at 35.7 nM.
In the same order, the values of B2 are 1 fold and 144 nM.
As for B3, the Fold increase over wild-type KD turned out to be 3 fold and the dissociation constant Kd amounted to 48 nM.
On the same counts, the results for B4 are 7.2 fold and 20.2 nM.
On the same counts, the results for B5 are 0.9 fold and 156 nM.
In the same order, the values of B6 are 2 fold and 71.4 nM.
B7 yielded a Fold increase over wild-type KD of 0.9 fold and a Kd of 151 nM.
In the same order, the values of B8 are 61 fold and 2.35 nM.

The next experiment has as its target bovine FcRn complex (bovine) (UniProt F6R592). The description is as above.
The molecule B9 displayed a Fold increase over wild-type KD of 1 fold and a dissociation constant Kd of 505 nM.
In the same order, the values of B10 are 3.9 fold and 129 nM.
On the same counts, the results for B11 are 7.1 fold and 71.4 nM.

In the next experiment the target is porcine FcRn complex (porcine) (UniProt Q07717). The experiment is described as above.
Sequence of porcine FcRn complex (porcine) (main, as listed by the source, chain 1 of 2): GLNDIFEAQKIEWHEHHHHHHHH
Sequence of porcine FcRn complex (porcine) (Q07717 other isoform, or with tags, fused parts or gaps, chain 2 of 2): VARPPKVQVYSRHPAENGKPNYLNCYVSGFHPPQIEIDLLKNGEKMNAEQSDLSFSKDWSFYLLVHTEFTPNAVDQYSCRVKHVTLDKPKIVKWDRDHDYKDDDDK
B12 returned a Fold increase over wild-type KD of 3.3 fold and a Kd of 96.1 nM.
On the same counts, the results for B13 are 3.4 fold and 93.6 nM.
Regarding B14, the Fold increase over wild-type KD amounted to 3.3 fold and the Kd came out at 97.2 nM.
On the same counts, the results for B15 are 3.6 fold and 86.9 nM.
For B16, the Fold increase over wild-type KD amounted to 3 fold and the Kd is 105 nM.
In the same order, the values of B17 are 40 fold and 7.93 nM.
On the same counts, the results for B18 are 9.3 fold and 34.1 nM.
In the same order, the values of B19 are 4.1 fold and 76.4 nM.
